{"source": "patent US20210269780A1", "target": "G3BP (human) (UniProt Q13283)"}
{"substance": "G3BPdi-mCherry-sspB (from UniProt Q13283)", "values": [{"measurement": "percentage of cells with PABPC1-positive stress granules after sodium arsenite", "result": "46 % of cells"}]}
{"substance": "mCherry-sspB", "values": [{"measurement": "percentage of cells with PABPC1-positive stress granules after sodium arsenite", "result": "85 % of cells"}]}
